Test system: MS2 coat protein
Test: apparent KD of MS2 coat protein; designed switch direction (-1 OFF switch, 1 ON switch): -1; higher = weaker reporter binding
Summary of the method: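 On Illumina chips, designed RNA switches with common flanks were made by stalled E. coli RNA polymerase. Titrations with SNAP-549-labelled MS2 coat protein, doubling from 0.7 or 1.5 nM to 3 µM, were done with no input, with 200 uM small-molecule ligand, or with an oligonucleotide input. Apparent KD is the median per design over clusters, from curve fits of normalised cluster fluorescence.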

[1] = input ligand: microRNA oligo, concentration not stated
[2] = Eterna round: R95, input ligand: FMN 200 uM
[3] = Eterna round: R95, input ligand: microRNA oligo, concentration not stated
[4] = Eterna round: R95, input ligand: none

Sequence | apparent KD of MS2 coat protein [1] [nM] | apparent KD of MS2 coat protein [2] [nM] | apparent KD of MS2 coat protein [3] [nM] | apparent KD of MS2 coat protein [4] [nM] | apparent KD of MS2 coat protein (input ligand: FMN 200 uM) [nM] | apparent KD of MS2 coat protein (input ligand: none) [nM]
GGGCUGCGACGCAGCCCAACAAAACAUGAGGAUCACCCAUGUCAGGAUAUACCGAUGCAGCAUCUGUAGAAGGGACAGAUCCAA [Tiraonin] (Eterna round: R96, puzzle: Exclusion NG 3) | 61.9 |  |  |  |  | 
GGGCUUCAAGUGAGGAUAUCUACGCAGUUGAAGCGAGAGAAGGCACAUGAGGAUCACCCAUGUAUAGAAGAAGA [Rausmausis] (puzzle: Brourd's mod of Exclusion 4) |  | 116 | 26.5 | 29.1 |  | 
GGGUGUCCAGUGAGGAUAUCCAACGCUAAGGCGCAGGAGAAGGCACAUGAGGAUCACCCAUGUAGCUGAAGAAA [Onerbegeso] (puzzle: Brourd's mod of Exclusion 4) |  | 49.9 | 14.1 | 20 |  | 
GGUACUAACACGAAAGUGUUAGUACAAUAAGCUAGUGGAACAUGAGGAUCACCCAUGUCCUCAUUAGCUCGUCUUAG [Mat - Sensor v3 - Turn-off var 2 - D37] (puzzle: Sensor v3, turn-off variant 2) |  | 14.7 | 37.6 | 12.7 |  | 
GGUACUAACACGAAAGUGUUAGUACUAUAAGCUUGUGUUACAUGAGGAUCACCCAUGUCCUCAUAGGCUCGUCUUGU [JL-sv3-2.17 mat747 mod] (puzzle: Sensor v3, turn-off variant 2) |  | 105 | 51 | 115 |  | 
GGUACUAACACGAGAGUGUUAGUACUAUAAGCUUGUGUUACAUGAGGAUCACCCAUGUCCUCAUAGGCUCGUCUUAU [Mat - Sensor v3 - Turn-off var 2 - D80] (puzzle: Sensor v3, turn-off variant 2) |  | 209 | 25.8 | 231 |  | 
GGUACUAACACGAUAGUGUUAGUACAAUAAGCUUGUGUUACAUGAGGAUCACCCAUGUCCUCAUAAGCUCGUCUUAU [Mat - Sensor v3 - Turn-off var 2 - D56] (puzzle: Sensor v3, turn-off variant 2) |  | 117 | 102 | 108 |  | 
GGUACUCAAAGAGUACCAAUACGAACAUGAGGAUCACCCAUGUAGGAUAUGCUACUCAAAGAGUAGCAGAAGGACGUGUACCUU [Far Half Aptamer v1] (Eterna round: R96, puzzle: Exclusion NG 3) | 18.5 |  |  |  |  | 
GGUAGAGUGGCAGGAUAUCCGUCUGUUUCAGUCGGAGAAGGGCCACAGUCACUGGGUCCAAAUAUGGGUGACCAUGUAUCUACC [pwkr exNG1 F6.4] (Eterna round: R96, puzzle: Exclusion NG 1) | 28.4 |  |  |  | 22 | 34.8
GGUCAGACGGUAGGAUAUCUAUAUCGAGUGACCCUUUCAUAACAUGAGGAUCACCCAUGUCGGUGGGAGAAGGGCCGUACGGCG [salish99_ExNG02_R04_007] (Eterna round: R96, puzzle: Exclusion NG 2) | 31.6 |  |  |  | 62.5 | 42.2
GGUCAGAUGGUAGGAUAUCCAUAUCGAGUGACCUUUUCAUAACAUGAGGAUCACCCAUGUCGGUGGGAGAAGGGCCGUACGGCG [salish99_ExNG02_R04_017] (Eterna round: R96, puzzle: Exclusion NG 2) | 79 |  |  |  | 120 | 112
GGUCCUGAUGAUUUCCUAUACAUGAGGAUCACCCAUGUAUGUGUAUUUUGUUUUUCGCUUUUUGGUCGUCAAUAAUA [Mod-Hoo-honey-2] (Eterna round: R97, puzzle: Sensor, turn-off variant 1) |  |  |  |  | 32.6 | 33.4
GGUGAGCGAGGAUAUACAUGAGGAUCACCCAUGUGACGCUGUCCUUGGAAGAACCUCUGUAGAAGGCGCGGAAU [Veisrien] (Eterna round: R97, puzzle: Exclusion 3) |  |  |  |  | 23.5 | 162
GGUGCACAUGAGGAUCACCCAUGUCAGGAUAUGUUACCACGUUACGAUCGAGUGACGAGCAGAAGGGACUGCAU [Eternabot (L2) Solution 68] (Eterna round: R97, puzzle: Exclusion 1) |  |  |  |  | 39.4 | 29.6
GGUGCGUAUGUGAGGAUAUGCUGGUCCUUGGCUCGGCAGAAGGCACAUGAGGAUCACCCAUGUGGUGUCGUACA [salish99_Bmod_ex4_072] (puzzle: Brourd's mod of Exclusion 4) |  |  | 73.5 |  |  | 
GGUGGACAUGAGGAUCACCCAUGUGAGGAUAUCGGCCGGUUCGUGGUGGCUGGCUUCUCGAGAAGGCGCAUAGU [Exclusion 1 V74] (puzzle: Exclusion 1) |  |  | 46.4 |  |  | 
GGUGGACAUGAGGAUCACCCAUGUGAGGAUAUCGGCUGGCUACUGGCUGACGGCUGCUCGAGAAGGCGCAUUGU [Exclusion 1 V87] (puzzle: Exclusion 1) |  |  | 38.4 |  |  | 

Sequence | apparent KD of MS2 coat protein [1] [nM] | apparent KD of MS2 coat protein [2] [nM] | apparent KD of MS2 coat protein [3] [nM] | apparent KD of MS2 coat protein [4] [nM] | apparent KD of MS2 coat protein (input ligand: FMN 200 uM) [nM] | apparent KD of MS2 coat protein (input ligand: none) [nM]
GGUGGGCUAGGAUAUGCUUUGGGUGGGCAUUCCUUCGAUAAACUUGAGGAUCACCCAAGUAGAAGGAGCUUGCC [salish99_ex2_r4_023] (Eterna round: R97, puzzle: Exclusion 2) |  |  |  |  | 21.8 | 35.4
GGUGGUAUUGUUAGGAUAUGGCAUGCCCGAGGCGUCUAGAAGGGACAUGAGGAUCACCCAUGUCUAGAAUUAAU [Eternabot (L2) Solution 53] (Eterna round: R97, puzzle: Brourd's mod of Exclusion 4) |  |  |  |  | 41.2 | 45.5
GGUGUCUUCAGAAGACAUGAGGAUCACCCAUGUAAAUGCACUGAGGAUAUACGGGCGACCGGCGUGUAGAAGGUAGAGCACGAA [Bivezale] (Eterna round: R96, puzzle: Exclusion NG 3) | 8.37 |  |  |  | 13.7 | 17.5
GGUUAGGCAGGAUAUACCCACAGUGUCUGUAGAAUCGCAAGACAUGAGGAUCACCCAUGUAGAAGGGCCGACCG [Eternabot (L1) Solution 1] (Eterna round: R97, puzzle: Exclusion 2) |  |  |  |  | 184 | 273
GGUUGACAUGAGGAUCACCCAUGUGAGGAUAUGCGAGAGAAAAAAGUGAGGAAGAAACGCAGAAGGCGCUGUCG [salish99-ex1_r3_010] (puzzle: Exclusion 1) |  | 59.3 | 163 | 133 |  | 
GGUUGGCGAGGAUAUACAUGAGGAUCACCCAUGUGAGAAAAUAAGUGAGGAAAGAAAAGUAGAAGGCGCUGACG [Mat - Exclusion 3 - Mod of Salish D53] (puzzle: Exclusion 3) |  | 570 | 55.8 | 37.1 |  | 
GGUUGGCGAGGAUAUACAUGAGGAUCACCCAUGUGAGAGAAAAACGUGAGGAAGAAAAGUAGAAGGCGCUGACG [salish99_ex3_r3_025] (puzzle: Exclusion 3) |  | 36.4 | 81.6 | 65.6 |  | 
GGUUGGCGAGGAUAUACAUGAGGAUCACCCAUGUGAGAGAAAGAAGUGAGGAAGAAAAGUAGAAGGCGUUGACG [salish99_ex3_r3_053] (puzzle: Exclusion 3) |  | 50.6 | 55.4 | 71.7 |  | 
GGUUGGCGAGGAUAUACAUGAGGAUCACCCAUGUGAGAGAAGAAAGUGAGAACGAAAAGUAGAAGGCGCUGACG [salish99_ex3_r3_060] (puzzle: Exclusion 3) |  | 2.08 | 43.8 | 90.2 |  | 
GGUUGGCGAGGAUAUACAUGAGGAUCACCCAUGUGCGAGAAAAAAGUGAGGAAGAAAAGUAGAAGGCGCUGACG [salish99_ex3_r3_018] (puzzle: Exclusion 3) |  | 238 | 49.5 | 58.2 |  | 
GGUUGGCGAGGAUAUACAUGAGGAUCACCCAUGUGGUCCUGAAAAAAAAAAAACCUUUGUAGAAGGCGCGGGUC [salish99_ex3_r4_035] (Eterna round: R97, puzzle: Exclusion 3) |  |  |  |  | 256 | 150
GGUUGGCGAGGAUAUACAUGAGGAUCACCCAUGUGGUCCUGUGGCUAAAAAAACCUUUGUAGAAGGCGCGGGUC [salish99_ex3_r4_030] (Eterna round: R97, puzzle: Exclusion 3) |  |  |  |  | 173 | 149
GGUUGGCGAGGAUAUACAUGAGGAUCACCCAUGUGGUCCUGUGGCUGAUCAAGCCUAUGUAGAAGGCGCAAAUC [salish99_ex3_r4_012] (Eterna round: R97, puzzle: Exclusion 3) |  |  |  |  | 137 | 257
GGUUUGGGAGGAUAUGGUUUUAAUAACAUGAGGAUCACCCAUGUAAAUAGAUCCUCAAGGCCAGAAGGCUCAAACC [-26.1, -25.22 kcal, A 33%] (Eterna round: R97, puzzle: Exclusion 5) |  |  |  |  | 212 | 1980
GGUUUGGGAGGAUAUGGUUUUAAUAACAUGAGGAUCACCCAUGUAAAUAGAUCCUCGAGGCCAGAAGGCUCGGGCC [-24.9, -23.72 kcal, A 28%] (Eterna round: R97, puzzle: Exclusion 5) |  |  |  |  | 405 | 85.7
GUAAACGAAGAGGAUAUUUGAUAUCAUAGCUUCAAAGAAGGCUUCACAUGAGGAUCACCCAUGUGAUCUUCAAG [Mat - Exclusion 6 - JL Mod - D21] (Eterna round: R97, puzzle: Exclusion 6) |  |  |  |  | 199 | 34.8
